Laboratory results reported in patent US20190077863A1 (AERPIO PHARMACEUTICALS, published 2019).
Where a chain is given by its changes, count along the chain named. Numbers in names are those of the source.

T1: Human HPTP-η with C-terminal His10 tag (Human HPTP-η ECD) (human, UniProt Q12913 36-975)
T1 construct: Produced in HEK293 cells; it was not cut off; also called Human PTPη; human PTP-η
T1 sequence: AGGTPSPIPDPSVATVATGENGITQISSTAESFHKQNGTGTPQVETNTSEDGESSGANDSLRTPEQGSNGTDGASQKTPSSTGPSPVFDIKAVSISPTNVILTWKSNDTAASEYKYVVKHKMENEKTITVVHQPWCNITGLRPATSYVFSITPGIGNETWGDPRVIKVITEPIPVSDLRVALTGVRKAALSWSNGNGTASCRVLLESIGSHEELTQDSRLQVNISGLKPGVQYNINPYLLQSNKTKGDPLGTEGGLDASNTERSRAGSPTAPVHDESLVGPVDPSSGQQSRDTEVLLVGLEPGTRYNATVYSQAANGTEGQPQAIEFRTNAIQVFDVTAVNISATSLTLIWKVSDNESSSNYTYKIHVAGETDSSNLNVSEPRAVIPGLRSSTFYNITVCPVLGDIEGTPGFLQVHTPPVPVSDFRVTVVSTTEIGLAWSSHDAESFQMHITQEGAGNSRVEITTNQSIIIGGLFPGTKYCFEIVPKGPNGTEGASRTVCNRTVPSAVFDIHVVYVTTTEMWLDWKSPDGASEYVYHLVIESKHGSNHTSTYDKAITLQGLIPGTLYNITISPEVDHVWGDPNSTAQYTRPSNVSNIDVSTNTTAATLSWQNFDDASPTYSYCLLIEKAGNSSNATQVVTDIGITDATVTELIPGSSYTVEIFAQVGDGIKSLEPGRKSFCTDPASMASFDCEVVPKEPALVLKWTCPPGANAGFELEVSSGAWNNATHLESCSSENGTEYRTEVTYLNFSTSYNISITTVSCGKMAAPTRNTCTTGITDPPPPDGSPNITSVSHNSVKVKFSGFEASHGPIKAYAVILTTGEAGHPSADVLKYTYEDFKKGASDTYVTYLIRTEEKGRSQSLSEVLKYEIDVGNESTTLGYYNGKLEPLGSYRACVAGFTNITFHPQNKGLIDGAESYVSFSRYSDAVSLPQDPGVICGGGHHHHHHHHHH

T2: Human VE-PTP (HPTP-β) containing first eight FN3 repeats with C-terminal His6 tag (Human ½ VE-PTP ECD) (human, UniProt P23467 23-820)
T2 construct: Produced in HEK293 cells and purified by the His tag; it was not cut off; also called Human Beta ½ ECD
T2 sequence: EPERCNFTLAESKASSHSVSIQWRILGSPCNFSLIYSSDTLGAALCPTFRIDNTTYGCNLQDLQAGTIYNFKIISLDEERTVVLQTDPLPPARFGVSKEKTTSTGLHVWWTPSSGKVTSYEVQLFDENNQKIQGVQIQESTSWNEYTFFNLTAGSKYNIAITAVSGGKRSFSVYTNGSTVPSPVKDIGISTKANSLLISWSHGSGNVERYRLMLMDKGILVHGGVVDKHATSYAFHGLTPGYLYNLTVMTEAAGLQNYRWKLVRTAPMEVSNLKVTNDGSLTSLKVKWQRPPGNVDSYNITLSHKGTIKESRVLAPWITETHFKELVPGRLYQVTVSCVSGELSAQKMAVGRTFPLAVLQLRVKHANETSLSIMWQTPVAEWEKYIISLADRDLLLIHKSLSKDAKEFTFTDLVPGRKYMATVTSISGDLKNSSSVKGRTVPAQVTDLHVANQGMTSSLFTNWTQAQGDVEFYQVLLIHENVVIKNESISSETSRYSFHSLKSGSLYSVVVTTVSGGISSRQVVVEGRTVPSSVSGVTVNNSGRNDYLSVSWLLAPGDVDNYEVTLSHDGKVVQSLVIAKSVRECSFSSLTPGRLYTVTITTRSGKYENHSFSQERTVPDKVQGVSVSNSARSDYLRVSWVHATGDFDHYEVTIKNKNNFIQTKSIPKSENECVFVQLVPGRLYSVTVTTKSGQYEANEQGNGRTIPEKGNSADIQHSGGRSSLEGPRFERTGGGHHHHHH

B1: humanized R15E6 variant HC2LC1 (antibody, human IgG4 S228P, kappa, V domains shown)
VH: EVQLVESGGGLVQPGGSLRLSCAASGFTFNANAMNWVRQAPGKGLEWVGRIRTKSNNYATYYAGSVKDRFTISRDDSKNSLYLQMNSLKTEDTAVYYCVRDYYGSSAWITYWGQGTLVTVSS
VL: DVVMTQSPSFLSASVGDRVTITCKASQHVGTAVAWYQQRPGKAPKLLIYWASTRHTGVPSRFSGSGSGTEFTLTISSLQPEDFATYFCQQYSSYPFTFGGGTKLEIKR
notes: Human IgG4 (S228P) / kappa, expressed in CHO cells; Signal peptides left out by range; also called VH2-VL1
B2: humanized R15E6 variant HC2LC2 (antibody, human IgG4 S228P, kappa, V domains shown)
VH: B1 VH
VL: DIVMTQSPDSLAVSLGERATINCKASQHVGTAVAWYQQKPGQPPKLLIYWASTRHTGVPDRFSGSGSGTDFTLTISSLQAEDVAVYYCQQYSSYPFTFGQGTKLEIKR
notes: Human IgG4 (S228P) / kappa, expressed in CHO cells; Signal peptides left out by range; also called VH2-VL2
B3: humanized R15E6 variant HC1LC2 (antibody, human IgG4 S228P, kappa, V domains shown)
VH: B1 VH with R19K, P41S, S80T, L81A, V95A
VL: B2 VL
notes: Human IgG4 (S228P) / kappa, expressed in CHO cells; Signal peptides left out by range; also called VH1-VL2
B4: humanized R15E6 variant HC1LC4 (antibody, human IgG4 S228P, kappa, V domains shown)
VH: B1 VH with R19K, P41S, S80T, L81A, V95A
VL: B2 VL with G41E, Q100G, L104V
notes: Human IgG4 (S228P) / kappa, expressed in CHO cells; Signal peptides left out by range; also called VH1-VL4
B5: humanized R15E6 variant HC2LC4 (antibody, human IgG4 S228P, kappa, V domains shown)
VH: B1 VH
VL: B2 VL with G41E, Q100G, L104V
notes: Human IgG4 (S228P) / kappa, expressed in CHO cells; Signal peptides left out by range; also called VH2-VL4
B6: humanized R15E6 variant HC2LC3 (antibody, human IgG4 S228P, kappa, V domains shown)
VH: B1 VH
VL: B1 VL with V2I, V3Q, S9F, F10S, R39K, E70D
notes: Human IgG4 (S228P) / kappa, expressed in CHO cells; Signal peptides left out by range; also called VH2-VL3
B7: humanized R15E6 variant HC3LC4 (antibody, human IgG4 S228P, kappa, V domains shown)
VH: B1 VH with G16R, A23T, S80I, L81A
VL: B2 VL with G41E, Q100G, L104V
notes: Human IgG4 (S228P) / kappa, expressed in CHO cells; Signal peptides left out by range; also called VH3-VL4
B8: mouse/human chimeric antibody HC0LC0 (antibody, human IgG4 S228P, kappa, V domains shown)
VH: EVQLVETGGGLVQPKGSMKLSCAASGFTFNANAMNWIRQAPGKGLEWVARIRTKSNNYATYYAGSVKDRFTISRDDAQNMLYLQMNDLKTEDTAMYYCVRDYYGSSAWITYWGQGTLVTVSA
VL: DIVMTQSHKFMSTSVGDRVSITCKASQHVGTAVAWYQQKPDQSPKQLIYWASTRHTGVPDRFTGSGSGTDFTLTISNVQSEDLADYFCQQYSSYPFTFGSGTKLEIKR
notes: Murine variable domains of R15E6 on human IgG4 (S228P) and kappa constant domains, expressed in CHO cells; also called VH0-VL0

molecular target: T1, Human HPTP-η with C-terminal His10 tag …; test: ELISA, coated antigen
Description: (§1) HPTP-β, cyno PTP-β, and HPTP-η proteins were coated onto ELISA plates in coating buffer (pH 9.4). Each protein was prepared as a 1 μg/mL protein stock in 50 mM carbonate-bicarbonate. The coated proteins were aliquoted at a volume of 100 μL/well into sterile, clear, polystyrene, flat bottom 96-well plates. The plates were incubated overnight at 4° C. After overnight incubation, the plates were washed 3× with 200 μL/well of 1×PBS-T (PBS with 0.05% Tween 20). The immunizing protein was human VE-PTP (HPTP-β). The plates were then blocked with 200 μL/well of 5% blotting grade blocker non-fat dry milk in PBS-T and incubated for 1 hr at room temperature.
(§2) Primary antibody samples were prepared for the humanized variants and the negative control, anti-hCD20-hIgG4S228P, using 1 μg/well in 5% blotting grade blocker non-fat dry milk in PBS. Samples were tested in triplicates. The Fab antibody fragments were treated as the IgG antibodies. The plates were then washed 3× with PBS-T and 100 μL of primary antibody preparation was added in each well. The plates were then incubated for 1 hr at room temperature.
(§3) Then, […] Ultra TMB-ELISA was added in each well, and the plate was allowed to develop for 5 min at room temperature. After 5 min, 50 μL of 2 M sulfuric acid was added to each well to stop the reaction. The plates were then analyzed on a plate reader at an absorbance wavelength of 450 nm.

Binder	binding result
B1	no binding (tested: <=0.2; 1 µg/well)
B2	no binding (tested: <=0.2; 1 µg/well)
B3	no binding (tested: <=0.2; 1 µg/well)
B4	no binding (tested: <=0.2; 1 µg/well)
B5	no binding (tested: <=0.2; 1 µg/well)
B6	no binding (tested: <=0.2; 1 µg/well)
B7	no binding (tested: <=0.2; 1 µg/well)
B8	no binding (tested: <=0.2; 1 µg/well)

molecular target: T2, Human VE-PTP (HPTP-β) containing first …; test: ELISA, antigen coated at 1 µg/mL, antibody 1 µg/well
Description: as §1, §2, §3

Binder	ELISA value (absorbance at 450 nm)
B1	1.81
B2	1.92
B3	1.75
B4	1.74
B5	1.65
B6	1.55
B7	2
B8	1.8
